The source of these data is US20060009393A1, “Immunogenic epitopes for fibroblast growth factors 5 (FGF-5)” (The Government of the U.S.A as represented by the Secretary …, priority 1999, published 2006).

The test deals with HLA-A3 on the autologous RCC cell line (human). The test is described as follows: cell-based or functional assay.

In turn, “W6/32 (pan-anti-class I MHC mAb) (antibody)” returned an inhibition of IFN-γ release by Clone 2 CTL against autologous tumor, mAb at 20 µg/ml greater than 75%.
